The labels stand for the following.
B1: Plrx (wild type plasmoredoxin, recombinant) [P. falciparum] / PfSAHH (recombinant S-adenosyl-L-homocysteine hydrolase) [P. falciparum strain 3D7] (parent)
chain 1: MACQVDNPPKTYPNDKTAEYEKYANYMNYLYYYQNNELKKIDSSYFKDKYLGLFFGASWCKYCVTFIDSLNIFKKNFPNVEIIYIPFDRTYQEYQSFLKNTNFYALPFDNYLYICKKYQIKNLPSFMLITPNNNILVKDAAQLIKTDEYINNLKSLIKNYIIHPKTFQFNNRFFDLFRN
chain 2: MVENKSKVKDISLAPFGKMQMEISENEMPGLMRIREEYGKDQPLKNAKITGCLHMTVECALLIETLQKLGAQIRWCSCNIYSTADYAAAAVSTLENVTVFAWKNETLEEYWWCVESALTWGDGDDNGPDMIVDDGGDATLLVHKGVEYEKLYEEKNILPDPEKAKNEEERCFLTLLKNSILKNPKKWTNIAKKIIGVSEETTTGVLRLKKMDKQNELLFTAINVNDAVTKQKYDNVYGCRHSLPDGLMRATDFLISGKIVVICGYGDVGKGCASSMKGLGARVYITEIDPICAIQAVMEGFNVVTLDEIVDKGDFFITCTGNVDVIKLEHLLKMKNNAVVGNIGHFDDEIQVNELFNYKGIHIENVKPQVDRITLPNGNKIIVLARGRLLNLGCATGHPAFVMSFSFCNQTFAQLDLWQNKDTNKYENKVYLLPKHLDEKVALYHLKKLNASLTELDDNQCQFLGVNKSGPFKSNEYRY
B2: PfTrx1 (wild type thioredoxin) [P. falciparum] / PfSAHH (recombinant S-adenosyl-L-homocysteine hydrolase) [P. falciparum strain 3D7] (parent)
chain 1: MVKIVTSQAEFDSIISQNELVIVDFFAEWCGPCKRIAPFYEECSKTYTKMVFIKVDVDEVSEVTEKENITSMPTFKVYKNGSSVDTLLGANDSALKQLIEKYAA
chain 2: B1 chain 2

Our source for the response (RD (normalized)) values is PMC2660430.

The first experiment covers variants of B1. Put plainly: SPR. The note with it: with PfSAHH (recombinant S-adenosyl-L-homocysteine hydrolase) [P. falciparum strain 3D7]; Maximum response at end of analyte injection; SAHH on the sensor surface oxidized with 0.5 mM DTNB; 30 µl of analyte, 10 µM in HBS buffer; pre-injection …; parent: 99; read off a plot.
On to chain 1 C63S, for which the response (RD (normalized)) came out at 28.

In the next experiment the parent is B2. The experiment is described as follows: SPR. The note with it: with PfSAHH (recombinant S-adenosyl-L-homocysteine hydrolase) [P. falciparum strain 3D7]; Maximum response at end of analyte injection; SAHH on the sensor surface oxidized with 0.5 mM DTNB; 30 µl of analyte, 10 µM in HBS buffer; pre-injection …; parent: 28; read off a plot.
For chain 1 C33S, the response (RD (normalized)) was found to be 97.
chain 1 C30S C33S: the response (RD (normalized)) stood at 21.
